Results reported in publication PMC11722267.

Target: 5-FAM-labelled VISTA WT peptide (fluorescence polarization probe) (human)
Assay: fluorescence polarisation

Chain of 5-FAM-labelled VISTA WT peptide (fluorescence polarization probe) (human) (Q9H7M9 232-258): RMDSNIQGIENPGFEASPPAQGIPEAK

Kd: 5.5 µM
Substance: recombinant NUMB PTB domain (domain or fragment)
